The record followed here is publication PMC3664827.

The data set relates to Lsr2 (Mycobacterium tuberculosis). In words: magnetic tweezers.

The term Kd denotes the concentration at which binding is half-saturated.

As for lambda DNA 48,502 bp, the Kd is 57.5 nM.
